Positions count from the first letter of the chain named. In names and notes the source's numbering stands.
B1: humanized 4E11 antibody hH3-hL2 (antibody, human IgG4 S228P, kappa, V domains shown)
VH: QVQLQESGPGLVKPSQTLSLTCTVSGYSITSDYAWNWIRQPPGKGLEWMGYIGYNGRTSYNPSLKSRITISRDTSKNQFSLKLSSVTAADTAVYYCARLGRGFAYWGQGTLVTVSS
VL: DIQMTQSPSSLSASVGDRVTITCHASQGINSNIGWLQQKPGKAPKGLIYHGTNLEDGVPSRFSGSGSGTDYTLTISSLQPEDFATYYCVQYAQFPYTFGQGTKLEIKR
notes: Human IgG4(S228P), C-terminal Lys deleted, human kappa; made in CHO cells; 16) for this name; 17
B2: humanized 4E11 antibody hH2-hL1 (antibody, human IgG4 S228P, kappa, V domains shown)
VH: B1 VH with M49I, I68V
VL: B1 VL with L36Y, G46L
notes: Human IgG4(S228P), C-terminal Lys deleted, human kappa; made in CHO cells; 16) for this name; 16
B3: humanized 4E11 antibody hH2-hL3 (antibody, human IgG4 S228P, kappa, V domains shown)
VH: B1 VH with M49I, I68V
VL: B1 VL with P44F
notes: Human IgG4(S228P), C-terminal Lys deleted, human kappa; made in CHO cells; 17) for this name; 18
B4: humanized 4E11 antibody hH3-hL1 (antibody, human IgG4 S228P, kappa, V domains shown)
VH: B1 VH
VL: B1 VL with L36Y, G46L
notes: Human IgG4(S228P), C-terminal Lys deleted, human kappa; made in CHO cells; 18) for this name; 16
B5: humanized 4E11 antibody hH3-hL3 (antibody, human IgG4 S228P, kappa, V domains shown)
VH: B1 VH
VL: B1 VL with P44F
notes: as for B3
B6: chimeric 4E11 antibody cH-cL (antibody, human IgG4 S228P, kappa, V domains shown)
VH: DVQLQESGPGLVKPSQSLSLTCTVTGYSITSDYAWNWIRQFPGNKLEWMGYIGYNGRTSYNPSLKSRISITRDTSKNQFFLQLNYVTTEDTATFYCARLGRGFAYWGQGTLVTVSA
VL: DILMTQSPSSMSVSLGDTVSITCHASQGINSNIGWLLQKPGKSFKGLIYHGTNLEDGVPSRFSGSGSGTDYSLTISSLESEDFADYYCVQYAQFPYTFGGGTKLEIKR
notes: Murine 4E11 V regions on human IgG4(S228P) heavy chain, C-terminal Lys deleted, and human kappa light chain; made in CHO cells; also called chimeric variant
B7: humanized 4E11 antibody hH2-hL2 (antibody, human IgG4 S228P, kappa, V domains shown)
VH: B1 VH with M49I, I68V
VL: B1 VL
B8: humanized 4E11 antibody hH1-hL1 (antibody, human IgG4 S228P, kappa, V domains shown)
VH: B1 VH with M49I, I68V, R72V
VL: B1 VL with L36Y, G46L
B9: humanized 4E11 antibody hH1-hL2 (antibody, human IgG4 S228P, kappa, V domains shown)
VH: B1 VH with M49I, I68V, R72V
VL: B1 VL
B10: humanized 4E11 antibody hH1-hL3 (antibody, human IgG4 S228P, kappa, V domains shown)
VH: B1 VH with M49I, I68V, R72V
VL: B1 VL with P44F

molecular target: T1, wild-type epidermal growth factor receptor (EGFR wt) (human, UniProt P00533 25-1210); assay: flow cytometry on U87MG-EGFR wt cells
T1 construct: whole, on cells; also called wt EGFR; WT EGFR
Procedure: Cells overexpressing full length wt EGFR or EGFRvIII were obtained from the laboratory of W. Cavanee (Ludwig Institute for Cancer Research, University of California at San Diego). Cells were grown in DMEM high glucose medium containing 10% FBS and 400 μg/ml G418.
Prior to analysis, cells were plated such that they were not more than 80% confluent on the day of analysis. Unless otherwise stated, all media are kept are 4° C. and all incubations are performed on wet ice. Cells were washed in PBS, harvested by the addition of cell dissociation buffer (Sigma), centrifuged and resuspended in complete medium at a cell density of 2×10⁶ cells/mL. […] Cells were washed twice by centrifugation and further incubated with a FITC labeled F(ab′)₂ goat anti-mouse antibody (Fc specific, #115-096-071, Jackson Immunoresearch, Cedarlane) for an hour. Cells were washed and re-suspended in medium containing Propidium iodide to exclude dead cells from analysis. Samples were filtered through a 60 μm nylon mesh filter plate (Millipore) to remove cell aggregates. Flow cytometry analyses were performed on 2,000 viable single-cells events gated on forward scattering, side scattering parameters and propidium iodide dye exclusion using a BD-LSRFortessa flow cytometer (Becton-Dickinson Biosciences) and a standard filter set using BD FACSDiva™ acquisition software, according to manufacturer's instructions.

**Q.** Which “Bmax @ 300 nM (MFI)” value does the source give for B1 here?
**A.** Its value is 160 MFI.

**Q.** How did the “Bmax @ 300 nM (MFI)” value turn out when B2 was run?
**A.** The value was 319 MFI.

**Q.** B3 was tested. Which “Bmax @ 300 nM (MFI)” value did it give?
**A.** Its value is 1420 MFI.

**Q.** For B4, which “Bmax @ 300 nM (MFI)” value is on record?
**A.** The value was 164 MFI.

**Q.** Which “Bmax @ 300 nM (MFI)” value does the source give for B5 here?
**A.** The value was 1370 MFI.

**Q.** B6 was tested. Which “Bmax @ 300 nM (MFI)” value did it give?
**A.** Its value is 525 MFI.

molecular target: epidermal growth factor receptor variant III (EGFRvIII) (human) (UniProt P00533); assay: flow cytometry on U87MG-EGFRvIII cells, apparent KD (KD-app), mean of several experiments

**Q.** How did the Kd turn out when B7 was run?
**A.** Its Kd is 10.5 nM.

**Q.** How did the Kd turn out when B8 was run?
**A.** The Kd was 9.7 nM.

**Q.** How did the Kd turn out when B1 was run?
**A.** Its Kd is 7.9 nM.

**Q.** Which Kd does the source give for B9 here?
**A.** Its Kd is 23 nM.

**Q.** Which Kd does the source give for B10 here?
**A.** The Kd was 15.7 nM.

**Q.** Which Kd does the source give for B2 here?
**A.** The Kd was 5.8 nM.

**Q.** Which Kd does the source give for B3 here?
**A.** Its Kd is 7.2 nM.

**Q.** How did the Kd turn out when B4 was run?
**A.** Its Kd is 4.9 nM.

**Q.** With B5 as the binder, how does the Kd read?
**A.** Its Kd is 7.1 nM.

Source: US20240400697A1 (NATIONAL RESEARCH COUNCIL OF CANADA, published 2024)
